Test results published in PMC2185075 (The Journal of Cell Biology, 1999).
Like-named read-outs stand apart in the source and are kept apart here. Values belong to the molecule of their own block, whether it stands above or below them.

Key:
Test in all cases: two-hybrid
SC35, two-hybrid fusion [1] = biological target: SC35, two-hybrid fusion (UniProt Q01130)
[2] = biological target: ASF/SF2, two-hybrid fusion (UniProt Q07955)
SC35, two-hybrid fusion [3] = biological target: SC35, two-hybrid fusion (UniProt Q01130); remark: listed apart in the source
[4] = biological target: ASF/SF2, two-hybrid fusion (UniProt Q07955); remark: listed apart in the source
SC35, two-hybrid fusion [5] = biological target: SC35, two-hybrid fusion (UniProt Q01130); remark: listed apart in the source
[6] = biological target: ASF/SF2, two-hybrid fusion (UniProt Q07955); remark: listed apart in the source
[7] = biological target: ASF/SF2, two-hybrid fusion (UniProt Q07955); remark: listed apart in the source
[8] = biological target: T1, U2AF65ΔRS, two-hybrid fusion (UniProt P26368 66-475)
[9] = biological target: T2, U2AF65, two-hybrid fusion (UniProt P26368 1-475)
[10] = biological target: T1, U2AF65ΔRS, two-hybrid fusion; remark: listed apart in the source
[11] = biological target: T2, U2AF65, two-hybrid fusion; remark: listed apart in the source

Sequence of ASF/SF2, two-hybrid fusion (Q07955 whole entry, the tested form may be a part): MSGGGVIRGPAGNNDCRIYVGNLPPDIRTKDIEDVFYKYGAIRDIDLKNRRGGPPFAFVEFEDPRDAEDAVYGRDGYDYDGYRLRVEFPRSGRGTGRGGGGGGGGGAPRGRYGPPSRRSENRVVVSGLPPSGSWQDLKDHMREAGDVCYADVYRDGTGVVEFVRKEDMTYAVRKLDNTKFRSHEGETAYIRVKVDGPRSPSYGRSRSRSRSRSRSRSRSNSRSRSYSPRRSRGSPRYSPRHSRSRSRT
T1 sequence (P26368 66-475, stated change not applied): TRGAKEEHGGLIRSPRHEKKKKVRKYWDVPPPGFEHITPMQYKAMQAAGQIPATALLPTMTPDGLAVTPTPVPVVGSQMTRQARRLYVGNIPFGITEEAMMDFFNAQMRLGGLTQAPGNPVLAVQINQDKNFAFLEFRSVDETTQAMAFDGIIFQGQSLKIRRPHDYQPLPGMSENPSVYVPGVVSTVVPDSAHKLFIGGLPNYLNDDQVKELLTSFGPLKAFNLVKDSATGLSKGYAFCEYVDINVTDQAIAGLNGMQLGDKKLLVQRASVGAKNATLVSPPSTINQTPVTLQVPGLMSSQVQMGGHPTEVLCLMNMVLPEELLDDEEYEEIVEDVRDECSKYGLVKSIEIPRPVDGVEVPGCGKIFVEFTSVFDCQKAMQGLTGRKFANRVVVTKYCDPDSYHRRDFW
Sequence of SC35, two-hybrid fusion (Q01130 whole entry, the tested form may be a part): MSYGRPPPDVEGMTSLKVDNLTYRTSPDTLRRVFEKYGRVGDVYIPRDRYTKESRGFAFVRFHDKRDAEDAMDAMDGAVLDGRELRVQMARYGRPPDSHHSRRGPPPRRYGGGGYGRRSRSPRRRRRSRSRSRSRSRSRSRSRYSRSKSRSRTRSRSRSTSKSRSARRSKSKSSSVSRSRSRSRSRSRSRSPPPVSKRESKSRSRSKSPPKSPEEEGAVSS
T2 sequence (P26368 whole entry, the tested form may be a part, one chain of several): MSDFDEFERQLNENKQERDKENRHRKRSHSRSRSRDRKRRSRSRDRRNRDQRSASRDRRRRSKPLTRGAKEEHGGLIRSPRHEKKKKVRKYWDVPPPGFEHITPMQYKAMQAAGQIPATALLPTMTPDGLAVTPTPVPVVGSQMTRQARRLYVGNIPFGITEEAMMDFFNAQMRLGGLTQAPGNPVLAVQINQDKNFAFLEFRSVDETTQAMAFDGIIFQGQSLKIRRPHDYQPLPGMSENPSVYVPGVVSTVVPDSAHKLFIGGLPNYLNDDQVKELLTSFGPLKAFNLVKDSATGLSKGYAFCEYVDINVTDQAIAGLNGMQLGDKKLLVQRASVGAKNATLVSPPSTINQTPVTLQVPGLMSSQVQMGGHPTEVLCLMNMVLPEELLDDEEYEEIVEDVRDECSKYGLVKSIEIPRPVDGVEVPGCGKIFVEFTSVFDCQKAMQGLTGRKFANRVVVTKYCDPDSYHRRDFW

percentage of the maximal two-hybrid interaction (β-galactosidase) (SC35, two-hybrid fusion [1]): 100%
percentage of the maximal two-hybrid interaction (β-galactosidase) [2]: 100%
percentage of the maximal two-hybrid interaction (β-galactosidase) (SC35, two-hybrid fusion [3]): 104%
percentage of the maximal two-hybrid interaction (β-galactosidase) [4]: 100%
percentage of the maximal two-hybrid interaction (β-galactosidase) (SC35, two-hybrid fusion [5]): 86%
percentage of the maximal two-hybrid interaction (β-galactosidase) [6]: 98%
percentage of the maximal two-hybrid interaction (β-galactosidase) [7]: 35%
Molecule: U1-70K, two-hybrid fusion (from UniProt P08621 1-437) (natural protein; other documents disagree on this pair)

two-hybrid β-galactosidase, fold over background (empty prey vector) [8]: 340 fold over background
B1: U2AF35, two-hybrid fusion (natural protein)
chain: MAEYLASIFGTEKDKVNCSFYFKIGACRHGDRCSRLHNKPTFSQTIALLNIYRNPQNSSQSADGLRCAVSDVEMQEHYDEFFEEVFTEMEEKYGEVEEMNVCDNLGDHLVGNVYVKFRREEDAEKAVIDLNNRWFNGQPIHAELSPVTDFREACCRQYEMGECTRGGFCNFMHLKPISRELRRELYGRRRKKHRSRSRSRERRSRSRDRGRGGGGGGGGGGGGRERDRRRSRDRERSGRF

two-hybrid β-galactosidase, fold over background (empty prey vector) [8]: 347 fold over background
two-hybrid β-galactosidase, fold over background (empty prey vector) [9]: 308 fold over background
two-hybrid β-galactosidase, fold over background (empty prey vector) [10]: 460 fold over background
two-hybrid β-galactosidase, fold over background (empty prey vector) [11]: 93 fold over background
B2: U2AF35ΔRS, two-hybrid fusion (domain or fragment)
chain: MAEYLASIFGTEKDKVNCSFYFKIGACRHGDRCSRLHNKPTFSQTIALLNIYRNPQNSSQSADGLRCAVSDVEMQEHYDEFFEEVFTEMEEKYGEVEEMNVCDNLGDHLVGNVYVKFRREEDAEKAVIDLNNRWFNGQPIHAELSPVTDFREACCRQYEMGECTRGGFCNFMHLKPISRELRRELYGRRR
